Target: T1, His-PTPN23 (UniProt Q9H3S7 1-1636)
T1 construct: PTPN23 cDNA amplified and subcloned to pVL1392 with a His-tag; also called baculovirally purified PTPN23; source: baculovirus, purified (Ni-Sepharose beads, eluted with imidazole)
Assay: pull-down; GST-WDR4 bound on glutathione beads incubated with purified PTPN23 or PTPN23 segments; binding buffer 50 mM Tris-HCl pH 7.5, 150 mM NaCl, 1% NP-40; bound proteins by Western blot
Conditions: both partners purified

T1 sequence (Q9H3S7 whole entry): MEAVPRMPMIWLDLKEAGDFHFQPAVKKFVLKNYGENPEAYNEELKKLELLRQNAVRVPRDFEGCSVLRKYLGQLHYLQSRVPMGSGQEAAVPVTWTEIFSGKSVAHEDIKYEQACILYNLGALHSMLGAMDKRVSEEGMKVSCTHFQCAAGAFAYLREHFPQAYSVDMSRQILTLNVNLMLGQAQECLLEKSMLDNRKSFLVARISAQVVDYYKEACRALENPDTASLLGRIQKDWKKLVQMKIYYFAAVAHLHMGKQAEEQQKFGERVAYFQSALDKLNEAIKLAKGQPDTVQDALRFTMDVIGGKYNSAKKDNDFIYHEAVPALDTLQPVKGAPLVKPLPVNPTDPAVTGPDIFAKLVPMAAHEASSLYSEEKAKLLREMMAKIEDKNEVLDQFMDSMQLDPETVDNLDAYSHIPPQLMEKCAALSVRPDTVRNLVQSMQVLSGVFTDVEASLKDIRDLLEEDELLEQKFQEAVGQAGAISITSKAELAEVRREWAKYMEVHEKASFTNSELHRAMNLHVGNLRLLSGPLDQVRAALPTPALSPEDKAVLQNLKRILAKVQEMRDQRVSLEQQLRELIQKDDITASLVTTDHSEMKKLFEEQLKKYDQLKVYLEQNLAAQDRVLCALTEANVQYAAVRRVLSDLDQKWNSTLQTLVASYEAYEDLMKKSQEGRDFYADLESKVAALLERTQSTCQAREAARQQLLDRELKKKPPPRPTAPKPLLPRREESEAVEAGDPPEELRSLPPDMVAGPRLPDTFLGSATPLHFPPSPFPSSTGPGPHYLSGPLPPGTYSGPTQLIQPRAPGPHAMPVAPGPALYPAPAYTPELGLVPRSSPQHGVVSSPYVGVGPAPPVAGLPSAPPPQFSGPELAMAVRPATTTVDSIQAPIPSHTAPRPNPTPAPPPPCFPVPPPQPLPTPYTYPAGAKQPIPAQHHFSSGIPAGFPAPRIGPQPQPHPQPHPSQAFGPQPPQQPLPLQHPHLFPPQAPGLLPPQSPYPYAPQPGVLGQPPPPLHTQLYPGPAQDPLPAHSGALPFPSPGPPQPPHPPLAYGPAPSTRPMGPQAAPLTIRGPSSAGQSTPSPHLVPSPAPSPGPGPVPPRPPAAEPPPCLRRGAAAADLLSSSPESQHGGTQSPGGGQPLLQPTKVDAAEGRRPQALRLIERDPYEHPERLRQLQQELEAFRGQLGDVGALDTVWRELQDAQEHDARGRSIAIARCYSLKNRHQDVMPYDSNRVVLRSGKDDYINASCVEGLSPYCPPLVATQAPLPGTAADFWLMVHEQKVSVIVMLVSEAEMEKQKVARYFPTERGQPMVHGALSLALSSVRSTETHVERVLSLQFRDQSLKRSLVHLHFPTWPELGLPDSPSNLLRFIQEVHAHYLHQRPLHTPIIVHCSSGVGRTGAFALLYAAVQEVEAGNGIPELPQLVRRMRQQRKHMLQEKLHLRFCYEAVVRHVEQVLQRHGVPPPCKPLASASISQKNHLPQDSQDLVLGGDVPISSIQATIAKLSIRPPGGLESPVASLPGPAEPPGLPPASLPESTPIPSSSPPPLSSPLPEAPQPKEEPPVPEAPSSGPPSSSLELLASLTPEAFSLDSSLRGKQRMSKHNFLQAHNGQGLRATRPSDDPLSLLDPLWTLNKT

B1: GST-WDR4 (natural protein, UniProt P57081 1-412, looked up)
chain: MAGSVGLALCGQTLVVRGGSRFLATSIASSDDDSLFIYDCSAAEKKSQENKGEDAPLDQGSGAILASTFSKSGSYFALTDDSKRLILFRTKPWQCLSVRTVARRCTALTFIASEEKVLVADKSGDVYSFSVLEPHGCGRLELGHLSMLLDVAVSPDDRFILTADRDEKIRVSWAAAPHSIESFCLGHTEFVSRISVVPTQPGLLLSSSGDGTLRLWEYRSGRQLHCCHLASLQELVDPQAPQKFAASRIAFWCQENCVALLCDGTPVVYIFQLDARRQQLVYRQQLAFQHQVWDVAFEETQGLWVLQDCQEAPLVLYRPVGDQWQSVPESTVLKKVSGVLRGNWAMLEGSAGADASFSSLYKATFDNVTSYLKKKEERLQQQLEKKQRRRSPPPGPDGHAKKMRPGEATLSC
notes: WDR4 cDNA amplified by PCR and cloned to pGEX-4T-1; pGEX-4T-1 would place GST at the N-terminus (surmised from the vector); also called bacterially purified GST-WDR4
Does B1 bind?
Result: binds

Reference: article PMC10567730, “PTPN23 ubiquitination by WDR4 suppresses EGFR and c-MET degradation to define a lung cancer therapeutic target” (Cell Death & Disease, 2023)
